{"source": "paper PMC11919473", "about": "“Synthesis and characterisation of DOTA‐kisspeptin‐10 as a potential gallium‐68/lutetium‐177 pan‐tumour radiopharmaceutical” (Journal of Neuroendocrinology, 2025)", "key": {"KISS1R": {"target": "T1, KISS1R (Homo sapiens, UniProt Q969F8)", "T1 construct": "expressed in transfected cells; host or cells: HEK 293-T cells, transient transfection with XtremeGene HP", "T1 sequence (Q969F8 whole entry)": "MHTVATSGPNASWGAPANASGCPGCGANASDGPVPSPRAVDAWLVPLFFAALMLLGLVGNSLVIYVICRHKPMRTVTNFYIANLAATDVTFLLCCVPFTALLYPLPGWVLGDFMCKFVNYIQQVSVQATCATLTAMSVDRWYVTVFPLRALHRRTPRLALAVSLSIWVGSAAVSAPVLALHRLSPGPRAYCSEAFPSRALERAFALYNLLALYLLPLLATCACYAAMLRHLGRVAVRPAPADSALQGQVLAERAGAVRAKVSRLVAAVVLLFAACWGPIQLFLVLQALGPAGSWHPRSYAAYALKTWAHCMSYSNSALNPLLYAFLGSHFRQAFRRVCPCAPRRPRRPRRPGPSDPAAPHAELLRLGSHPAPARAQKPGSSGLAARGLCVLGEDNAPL", "assay": "Inositol phosphate (IP) accumulation assay in HEK 293‐T cells transiently transfected with KISS1R", "format": "cell-based", "conditions": "for EC50: HEK 293‐T cells expressing KISS1R", "description": "HEK 293‐T cell culturing and the IP accumulation assay were performed as described by Newton et al.[15], [16] The IP assay measures the response of the cells to ligands that is a measure of the binding affinity and stimulation of intracellular signalling. This assay was applied to determine whether the novel ligand retained the same or improved activity as KP10.\nHEK 293‐T cells were cultured and maintained using DMEM (10% FBS) media supplemented with Glutamax at 37°C, 5% CO2 and 95% relative humidity. HEK 293‐T cells were passaged at 90% confluency using Trypsin. HEK 293‐T cells were plated out into 24‐well plates at a density of 1 × 10^5 cells/well. Each well was pre‐coated with Matrigel at a 1:30 dilution to ensure adhesion to the well. KISS1R gene construct was transiently transfected into the HEK 293‐T cells at a concentration of 10 ng/μL of KISS1R using XtremeGene HP (1:2 ratio) DNA transfection reagent. Cells were incubated overnight at 37°C at 5% CO2.\nFor the IP assay, the HEK 293‐T cells were incubated with myoinositol‐[2‐3H] […] The radiolabelled IPs were separated using a Dowex 100–200 mesh resin ion‐exchange chromatography, and the radioactivity (cpm) was measured using liquid scintillation (Packard Tricarb 2100 TR liquid scintillation analyser TRI‐CARB 4910TR 110 V Liquid Scintillation Counter, Perkin‐Elmer, USA). […] The results were analysed by doing sigmoidal regression to determine the EC 50 and then compared with their respective normalised ligand signalling assay.\nThe accumulation of the IPs measured for cells transfected with XtremeGene without KISS1R and treated with maximal stimulation of KP10 (1 × 10^−6 M) was subtracted from the measured accumulation of cells stimulated with DOTA‐KP10 over a dose range ([…]–1 × 10^−6 M) that were transfected with KISS1R in the same assay.\nFor the IP assay, the data were fitted using a nonlinear regression to determine Emax and EC50. Data collected from the ex vivo biodistribution were evaluated using the Kruskal–Wallis analysis. […]"}, "[1]": {"format": "in vitro ADME", "description": "The protein binding assay was done as described by Mdlophane et al.[18] In brief, [^68Ga]Ga‐DOTA‐KP10 was incubated for 0, 60 and 120 min in serum at 37°C. Proteins were precipitated in ice‐cold acetonitrile (500 μL) and centrifuged (5000 rpm, 10 min). The supernatant was removed, and the protein pellet was washed with acetonitrile (250 μL). The washed protein pellets and supernatants were measured in an automated gamma‐counter (Hidex, Finland)."}, "[2]": {"parameters": "species or system Sprague–Dawley rats", "conditions": "rat, in vivo, iv", "excerpt": "All procedures followed during the animal studies adhered to institutional and South African national guidelines for the care and use of laboratory animals (SANS10386:2021). Ethical approval for the study was obtained from the Research Animal Ethics Committee of North-West University (NWU-00560-19-S5) and the University of Pretoria (149/2019), South Africa. The animals were provided by the Department of Science and Technology/North-West University Preclinical Drug Development Platform (PCDDP) Vivarium. The study was conducted at the Preclinical Imaging Facility (PCIF) of the Nuclear Medicine Research Infrastructure (NuMeRI), South Africa. Five healthy Sprague-Dawley rats (male, 6-8 weeks, ±200 g) were enrolled into the study. All animals had ad libitum access to a conventional rodent diet and water. Animals were maintained on a 12-h artificial day/night cycle and supplied with corn cob bedding and nesting material for cage enrichment. […] Hybrid images were viewed and analysed using the InterviewFusionTM software (Mediso, Hungary). A qualitative visual analysis was done on all acquisitions, and blood standardized uptake value values were calculated. […] Data collected from the ex vivo biodistribution were evaluated using the Kruskal-Wallis analysis. […] Organs were measured for activity and expressed as the percentage injected dose per gram of the organ (%ID/g). […]"}, "[3]": {"format": "in vitro ADME, human", "description": "Stability studies were performed in triplicate using [^68Ga]Ga‐DOTA‐KP10 spiked human serum, plasma or whole blood (samples were removed at 5, 60 and 120 min with incubation at 37°C). […] The samples taken (200 μL) at the selected time points were treated with ice‐cold acetonitrile (500 μL) and thereafter filtered with a 0.22‐μm filter to remove all residual proteins in the extract. This sample was then analysed by the HPLC method as described under Section 2.2.4."}, "[4]": {"format": "in vitro ADME, human", "description": "The red blood cell (RBC) binding assay was performed by the method described by Shi and co‐workers.[22] In brief, radiolabelled [^68Ga]Ga‐DOTA‐KP10 (740 kBq in 10 μL) was mixed with 100 μL of human blood drawn up in the presence of heparin. The mixture was incubated in a shaking incubator at 37°C. Samples ([…]) were collected at two time points, 10 and 30 min. Plasma and blood cells were separated by centrifugation (2000 rpm, 5 min). The plasma was removed, and the blood cells were washed twice with 500 μL of normal saline (0.9% NaCl) that was then added to the plasma fraction. The amount (%) of labelled compound that was bound to the RBC was determined by the ratio of distribution between the plasma and blood cell fraction.[22]", "remark": "listed apart in the source"}, "physchem": {"assay": "physchem", "format": "physicochemical", "description": "The method published by Jain and co‐workers was used.[21] Briefly, 100 μL (± 100 MBq) of the labelled [^68Ga]Ga‐DOTA‐KP10 was dispersed in a 1‐mL phosphate‐buffered saline (PBS) and octanol mixture (0.9:1). The samples were vortexed (1 min) and then centrifuged (5 min, 6000 rpm). A sample (200 μL) from each phase was taken, and the activity was measured in the Hidex AMG automated gamma counter (Turku, Finland). The partition coefficient (log P) was expressed as the logarithm of the ratio of counts from the n‐octanol fraction versus that of the aqueous fraction.[21], [22]"}, "in vivo": {"assay": "in vivo", "parameters": "species or system Sprague–Dawley rats", "conditions": "rat; for tissue uptake at 2.5 h: male, Sprague-Dawley, iv, 18.8 MBq, total radioactivity", "description": "After the final image was acquired (150 min postinjection), the animals were euthanised and ex vivo biodistribution was performed. Euthanasia was performed by an overdose of isoflurane (without waking up post‐scan) followed by decapitation. A quantitative analysis of the radioactivity biodistribution and uptake in various organs of the rats was conducted. Following micro‐PET/CT imaging, the anesthetised animals were euthanised by decapitation and blood was collected into pre‐weighed BD SST vacutainer tubes (thermos Fisher Scientific, Johannesburg, South Africa). The blood samples were centrifuged (6000 rpm, 5 min) to separate the serum from the blood cells. The blood and serum along with the other dissected tissues and organs (heart, liver, spleen, intestines, testes, stomach, lungs and brain) were weighed, and the radioactivity was measured in the automated gamma counter (Hidex AMG, Turku, Finland). The radioactivity per organ was expressed as the percentage injected dose per gram of the organ (% ID/g). […] Data collected from the ex vivo biodistribution were evaluated using the Kruskal–Wallis analysis. A chi‐squared that was less than the H‐statistic was used to indicate significant differences between the concentrations within regions of interest. Organs were measured for activity and expressed as the percentage injected dose per gram of the organ (%ID/g). A multipoint regression model (exponential fit) was used to estimate blood‐half life."}}, "note": "Like-named read-outs stand apart in the source and are kept apart here."}
{"smiles": "CC(C)C[C@H](NC(=O)CNC(=O)[C@H](Cc1ccccc1)NC(=O)[C@H](CO)NC(=O)[C@H](CC(N)=O)NC(=O)[C@H](Cc1c[nH]c2ccccc12)NC(=O)[C@H](CC(N)=O)NC(=O)[C@H](Cc1ccc(O)cc1)NC(=O)CN1CCN(CC(=O)O)CCN(CC(=O)O)CCN(CC(=O)O)CC1)C(=O)N[C@@H](CCCNC(=N)N)C(=O)N[C@@H](Cc1ccccc1)C(N)=O", "note": "[DOTA‐KP10]", "values": [{"measurement": "EC50", "setting": "KISS1R; four independent experiments, read-out: EC50", "result": 3.99, "unit": "nM"}, {"measurement": "Emax", "setting": "KISS1R; HEK-293T, KP10 maximal response set at 100%, read-out: Maximal response as % of that of KP10", "result": 97.8, "unit": "%"}]}
{"smiles": "CC(C)C[C@H](NC(=O)CNC(=O)[C@H](Cc1ccccc1)NC(=O)[C@H](CO)NC(=O)[C@H](CC(N)=O)NC(=O)[C@H](Cc1c[nH]c2ccccc12)NC(=O)[C@H](CC(N)=O)NC(=O)[C@@H](N)Cc1ccc(O)cc1)C(=O)N[C@@H](CCCNC(=N)N)C(=O)N[C@@H](Cc1ccccc1)C(N)=O", "note": "[KP10, kisspeptin‐10]", "values": [{"measurement": "EC50", "setting": "KISS1R; 1 h ligand incubation at 37°C, 10 mM LiCl, mean ± SEM, N = 4, read-out: EC50 Mean nM ± SEM (N = 4)", "result": "1.87 ± 0.095", "unit": "nM"}]}
{"smiles": "CC(C)C[C@H](NC(=O)CNC(=O)[C@H](Cc1ccccc1)NC(=O)[C@H](CO)NC(=O)[C@H](CC(N)=O)NC(=O)[C@H](Cc1c[nH]c2ccccc12)NC(=O)[C@H](CC(N)=O)NC(=O)[C@H](Cc1ccc(O)cc1)NC(=O)CN1CCN(CC(=O)O)CCN(CC(=O)O)CCN(CC(=O)O)CC1)C(=O)N[C@@H](CCCNC(=N)N)C(=O)N[C@@H](Cc1ccccc1)C(N)=O", "note": "[[^68Ga]Ga‐DOTA‐KP10, metal not drawn]", "values": [{"measurement": "Radioactivity bound to plasma proteins after initiating the incubation (0 min)", "setting": "[1]", "result": "28.2 ± 1.35", "unit": "%"}, {"measurement": "Radioactivity bound to plasma proteins at 2 h", "setting": "[1]", "result": "67.99 ± 3.56", "unit": "%"}, {"measurement": "Accumulation in the brain or lungs on micro‐PET/CT", "setting": "[2]", "result": "no noticeable accumulation"}, {"measurement": "Uptake in the hypothalamus on micro‐PET/CT images", "setting": "[2]", "result": "No uptake was observed"}, {"measurement": "Stability in plasma at 5 min", "setting": "[3]", "result": "formation of a degradation product"}, {"measurement": "Stability in whole blood at 5 min", "setting": "[3]", "result": "formation of a degradation product"}, {"measurement": "Binding to red blood cells at 10 min", "setting": "[4]", "result": "6.72 ± 0.37", "unit": "%"}, {"measurement": "Binding to red blood cells at 30 min", "setting": "[4]", "result": "6.35 ± 2.7", "unit": "%"}, {"measurement": "logD", "setting": "physchem", "result": -2}, {"measurement": "tissue uptake at 2.5 h", "setting": "in vivo; Ex vivo radioactivity in kidneys", "result": "1.5 ± 0.2", "unit": "%ID/g"}, {"measurement": "tissue uptake at 2.5 h", "setting": "in vivo; Ex vivo radioactivity in organs other than kidneys", "result": "< 0.5", "unit": "%ID/g"}, {"measurement": "Serum:blood ratio", "setting": "in vivo", "result": "sixfold to eightfold"}]}
